B1: Azoarcus group I ribozyme (parent)
chain: GUGCCUUGCGCCGGGAAACCACGCAAGGGAUGGUGUCAAAUUCGGCGAAACCUAAGCGCCCGCCCGGGCGUAUGGCAACGCCGAGCCAAGCUUCGGCGCCUGCGCCGAUGAAGGUGUAGAGACUAGACGGCACCCACCUAAGGCAAACGCUAUGGUGAAGGCAUAGUCCAGGGAGUGGCGAAAGUCACACAAACCGG

Variants of: B1
Test: reverse-splicing fitness (ratio to wild type); higher = more active; in vitro selection; Mg2+ level not given
Summary of the method: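 An in vitro group I ribozyme library with randomized positions was T7-transcribed and gel-purified. In triplicate, 10 pmol RNA in EPPS pH 7.5 was reacted with 50 pmoles of a 30-nt RNA substrate for 1 h at 37 °C across several added MgCl2 levels (1–48 mM), then stopped with EDTA. Products were reverse transcribed from a substrate-complementary primer, PCR-amplified and sequenced (HiSeq 4000). Fitness is a variant's read proportion after selection over that before, normalised to wild type.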

Question: Which reverse-splicing fitness does the source give for GUGCCUUGCGCCGGGAAACCACGCAAGGGAUGGUGUCAAAUUCGGCGAAACCUAAGCGCCCGCCCGGGCGUAUGGCAACGCCGAGCCAAGCUUCGGCGCCUGCGCCGAUGAAGGUGUAGGGACUAGACGGCACCCACCUAAGGCCAACGGUAUGGUGAAGGCAUAGUCAAGGGAGUGGCGAAAGUCACACAAACCGG here?
Answer: 0.0659

Question: For GUGCCUUGCGCCGGGAAACCACGCAAGGGAUGGUGUCAAAUUCGGCGAAACCUAAGCGCCCGCCCGGGCGUAUGGCAACGCCGAGCCAAGCUUCGGCGCCUGCGCCGAUGAAGGUGUAGGGACUAGACGGCACCCACCUAAGGCCAACGGUAUGGUGAAGGCAUAGUCAAGGGAGAGGCGAAAGUCACACAAACCGG, which reverse-splicing fitness is on record?
Answer: 0.016

Question: For GUGCCUUGCGCCGGGAAACCACGCAAGGGAUGGUGUCAAAUUCGGCGAAACCUAAGCGCCCGCCCGGGCGUAUGGCAACGCCGAGCCAAGCUUCGGCGCCUGCGCCGAUGAAGGUGUAGGGACUAGACGGCACCCACCUAAGGCCAACGGUAUGGUGAAGGCAUAGUCAAGGGAGCGGCGAAAGUCACACAAACCGG, which reverse-splicing fitness is on record?
Answer: 0.031

Question: For GUGCCUUGCGCCGGGAAACCACGCAAGGGAUGGUGUCAAAUUCGGCGAAACCUAAGCGCCCGCCCGGGCGUAUGGCAACGCCGAGCCAAGCUUCGGCGCCUGCGCCGAUGAAGGUGUAGGGACUAGACGGCACCCACCUAAGGCCAACGGUAUGGUGAAGGCAUAGUCAAGGGAGGGGCGAAAGUCACACAAACCGG, which reverse-splicing fitness is on record?
Answer: 0.00448

Question: Which reverse-splicing fitness does the source give for GUGCCUUGCGCCGGGAAACCACGCAAGGGAUGGUGUCAAAUUCGGCGAAACCUAAGCGCCCGCCCGGGCGUAUGGCAACGCCGAGCCAAGCUUCGGCGCCUGCGCCGAUGAAGGUGUAGGGACUAGACGGCACCCACCUAAGGCCAACGGUAUGGUGAAGGCAUAGUCGAGGGAGUGGCGAAAGUCACACAAACCGG here?
Answer: 0.114

Question: Which reverse-splicing fitness does the source give for GUGCCUUGCGCCGGGAAACCACGCAAGGGAUGGUGUCAAAUUCGGCGAAACCUAAGCGCCCGCCCGGGCGUAUGGCAACGCCGAGCCAAGCUUCGGCGCCUGCGCCGAUGAAGGUGUAGGGACUAGACGGCACCCACCUAAGGCCAACGGUAUGGUGAAGGCAUAGUCGAGGGAGAGGCGAAAGUCACACAAACCGG here?
Answer: 0.0244

Question: Which reverse-splicing fitness does the source give for GUGCCUUGCGCCGGGAAACCACGCAAGGGAUGGUGUCAAAUUCGGCGAAACCUAAGCGCCCGCCCGGGCGUAUGGCAACGCCGAGCCAAGCUUCGGCGCCUGCGCCGAUGAAGGUGUAGGGACUAGACGGCACCCACCUAAGGCCAACGGUAUGGUGAAGGCAUAGUCGAGGGAGCGGCGAAAGUCACACAAACCGG here?
Answer: 0.0117

Question: For GUGCCUUGCGCCGGGAAACCACGCAAGGGAUGGUGUCAAAUUCGGCGAAACCUAAGCGCCCGCCCGGGCGUAUGGCAACGCCGAGCCAAGCUUCGGCGCCUGCGCCGAUGAAGGUGUAGGGACUAGACGGCACCCACCUAAGGCCAACGGUAUGGUGAAGGCAUAGUCGAGGGAGGGGCGAAAGUCACACAAACCGG, which reverse-splicing fitness is on record?
Answer: 0.00456

Question: Which reverse-splicing fitness does the source give for GUGCCUUGCGCCGGGAAACCACGCAAGGGAUGGUGUCAAAUUCGGCGAAACCUAAGCGCCCGCCCGGGCGUAUGGCAACGCCGAGCCAAGCUUCGGCGCCUGCGCCGAUGAAGGUGUAGGGACUAGACGGCACCCACCUAAGGCCAACGGUAUGGUGAAGGCAUAGUCUAGGGAGUGGCGAAAGUCACACAAACCGG here?
Answer: 0.0909

Question: Which reverse-splicing fitness does the source give for GUGCCUUGCGCCGGGAAACCACGCAAGGGAUGGUGUCAAAUUCGGCGAAACCUAAGCGCCCGCCCGGGCGUAUGGCAACGCCGAGCCAAGCUUCGGCGCCUGCGCCGAUGAAGGUGUAGGGACUAGACGGCACCCACCUAAGGCCAACGGUAUGGUGAAGGCAUAGUCUAGGGAGAGGCGAAAGUCACACAAACCGG here?
Answer: 0.0356

Question: With GUGCCUUGCGCCGGGAAACCACGCAAGGGAUGGUGUCAAAUUCGGCGAAACCUAAGCGCCCGCCCGGGCGUAUGGCAACGCCGAGCCAAGCUUCGGCGCCUGCGCCGAUGAAGGUGUAGGGACUAGACGGCACCCACCUAAGGCCAACGGUAUGGUGAAGGCAUAGUCUAGGGAGCGGCGAAAGUCACACAAACCGG as the variant, how does the reverse-splicing fitness read?
Answer: 0.054

Question: Which reverse-splicing fitness does the source give for GUGCCUUGCGCCGGGAAACCACGCAAGGGAUGGUGUCAAAUUCGGCGAAACCUAAGCGCCCGCCCGGGCGUAUGGCAACGCCGAGCCAAGCUUCGGCGCCUGCGCCGAUGAAGGUGUAGGGACUAGACGGCACCCACCUAAGGCCAACGGUAUGGUGAAGGCAUAGUCUAGGGAGGGGCGAAAGUCACACAAACCGG here?
Answer: 0.00576

Question: For GUGCCUUGCGCCGGGAAACCACGCAAGGGAUGGUGUCAAAUUCGGCGAAACCUAAGCGCCCGCCCGGGCGUAUGGCAACGCCGAGCCAAGCUUCGGCGCCUGCGCCGAUGAAGGUGUAGGGACUAGACGGCACCCACCUAAGGCCAACGGUAUGGUGAAGGCAUAGUCCAGGGAGAGGCGAAAGUCACACAAACCGG, which reverse-splicing fitness is on record?
Answer: 0.0444

Question: For GUGCCUUGCGCCGGGAAACCACGCAAGGGAUGGUGUCAAAUUCGGCGAAACCUAAGCGCCCGCCCGGGCGUAUGGCAACGCCGAGCCAAGCUUCGGCGCCUGCGCCGAUGAAGGUGUAGGGACUAGACGGCACCCACCUAAGGCCAACGGUAUGGUGAAGGCAUAGUCCAGGGAGCGGCGAAAGUCACACAAACCGG, which reverse-splicing fitness is on record?
Answer: 0.0556

Question: Which reverse-splicing fitness does the source give for GUGCCUUGCGCCGGGAAACCACGCAAGGGAUGGUGUCAAAUUCGGCGAAACCUAAGCGCCCGCCCGGGCGUAUGGCAACGCCGAGCCAAGCUUCGGCGCCUGCGCCGAUGAAGGUGUAGGGACUAGACGGCACCCACCUAAGGCCAACGGUAUGGUGAAGGCAUAGUCCAGGGAGGGGCGAAAGUCACACAAACCGG here?
Answer: 0.0061

Question: With GUGCCUUGCGCCGGGAAACCACGCAAGGGAUGGUGUCAAAUUCGGCGAAACCUAAGCGCCCGCCCGGGCGUAUGGCAACGCCGAGCCAAGCUUCGGCGCCUGCGCCGAUGAAGGUGUAGGGACUAGACGGCACCCACCUAAGGCCAACGUUAUGGUGAAGGCAUAGUCCAGGGAGUGGCGAAAGUCACACAAACCGG as the variant, how does the reverse-splicing fitness read?
Answer: 0.166

Question: Which reverse-splicing fitness does the source give for GUGCCUUGCGCCGGGAAACCACGCAAGGGAUGGUGUCAAAUUCGGCGAAACCUAAGCGCCCGCCCGGGCGUAUGGCAACGCCGAGCCAAGCUUCGGCGCCUGCGCCGAUGAAGGUGUAGGGACUAGACGGCACCCACCUAAGGCCAACGUUAUGGUGAAGGCAUAGUCAAGGGAGUGGCGAAAGUCACACAAACCGG here?
Answer: 0.123

Question: For GUGCCUUGCGCCGGGAAACCACGCAAGGGAUGGUGUCAAAUUCGGCGAAACCUAAGCGCCCGCCCGGGCGUAUGGCAACGCCGAGCCAAGCUUCGGCGCCUGCGCCGAUGAAGGUGUAGGGACUAGACGGCACCCACCUAAGGCCAACGUUAUGGUGAAGGCAUAGUCAAGGGAGAGGCGAAAGUCACACAAACCGG, which reverse-splicing fitness is on record?
Answer: 0.0422

Question: For GUGCCUUGCGCCGGGAAACCACGCAAGGGAUGGUGUCAAAUUCGGCGAAACCUAAGCGCCCGCCCGGGCGUAUGGCAACGCCGAGCCAAGCUUCGGCGCCUGCGCCGAUGAAGGUGUAGGGACUAGACGGCACCCACCUAAGGCCAACGUUAUGGUGAAGGCAUAGUCAAGGGAGCGGCGAAAGUCACACAAACCGG, which reverse-splicing fitness is on record?
Answer: 0.0659

Question: For GUGCCUUGCGCCGGGAAACCACGCAAGGGAUGGUGUCAAAUUCGGCGAAACCUAAGCGCCCGCCCGGGCGUAUGGCAACGCCGAGCCAAGCUUCGGCGCCUGCGCCGAUGAAGGUGUAGGGACUAGACGGCACCCACCUAAGGCCAACGUUAUGGUGAAGGCAUAGUCAAGGGAGGGGCGAAAGUCACACAAACCGG, which reverse-splicing fitness is on record?
Answer: 0.00586

Question: With GUGCCUUGCGCCGGGAAACCACGCAAGGGAUGGUGUCAAAUUCGGCGAAACCUAAGCGCCCGCCCGGGCGUAUGGCAACGCCGAGCCAAGCUUCGGCGCCUGCGCCGAUGAAGGUGUAGGGACUAGACGGCACCCACCUAAGGCCAACGUUAUGGUGAAGGCAUAGUCGAGGGAGUGGCGAAAGUCACACAAACCGG as the variant, how does the reverse-splicing fitness read?
Answer: 0.213

Question: With GUGCCUUGCGCCGGGAAACCACGCAAGGGAUGGUGUCAAAUUCGGCGAAACCUAAGCGCCCGCCCGGGCGUAUGGCAACGCCGAGCCAAGCUUCGGCGCCUGCGCCGAUGAAGGUGUAGGGACUAGACGGCACCCACCUAAGGCCAACGUUAUGGUGAAGGCAUAGUCGAGGGAGAGGCGAAAGUCACACAAACCGG as the variant, how does the reverse-splicing fitness read?
Answer: 0.102

Question: With GUGCCUUGCGCCGGGAAACCACGCAAGGGAUGGUGUCAAAUUCGGCGAAACCUAAGCGCCCGCCCGGGCGUAUGGCAACGCCGAGCCAAGCUUCGGCGCCUGCGCCGAUGAAGGUGUAGGGACUAGACGGCACCCACCUAAGGCCAACGUUAUGGUGAAGGCAUAGUCGAGGGAGCGGCGAAAGUCACACAAACCGG as the variant, how does the reverse-splicing fitness read?
Answer: 0.107

Question: For GUGCCUUGCGCCGGGAAACCACGCAAGGGAUGGUGUCAAAUUCGGCGAAACCUAAGCGCCCGCCCGGGCGUAUGGCAACGCCGAGCCAAGCUUCGGCGCCUGCGCCGAUGAAGGUGUAGGGACUAGACGGCACCCACCUAAGGCCAACGUUAUGGUGAAGGCAUAGUCGAGGGAGGGGCGAAAGUCACACAAACCGG, which reverse-splicing fitness is on record?
Answer: 0.00726

Question: Which reverse-splicing fitness does the source give for GUGCCUUGCGCCGGGAAACCACGCAAGGGAUGGUGUCAAAUUCGGCGAAACCUAAGCGCCCGCCCGGGCGUAUGGCAACGCCGAGCCAAGCUUCGGCGCCUGCGCCGAUGAAGGUGUAGGGACUAGACGGCACCCACCUAAGGCCAACGUUAUGGUGAAGGCAUAGUCUAGGGAGUGGCGAAAGUCACACAAACCGG here?
Answer: 0.153

Question: Which reverse-splicing fitness does the source give for GUGCCUUGCGCCGGGAAACCACGCAAGGGAUGGUGUCAAAUUCGGCGAAACCUAAGCGCCCGCCCGGGCGUAUGGCAACGCCGAGCCAAGCUUCGGCGCCUGCGCCGAUGAAGGUGUAGGGACUAGACGGCACCCACCUAAGGCCAACGUUAUGGUGAAGGCAUAGUCUAGGGAGAGGCGAAAGUCACACAAACCGG here?
Answer: 0.0904

Question: Which reverse-splicing fitness does the source give for GUGCCUUGCGCCGGGAAACCACGCAAGGGAUGGUGUCAAAUUCGGCGAAACCUAAGCGCCCGCCCGGGCGUAUGGCAACGCCGAGCCAAGCUUCGGCGCCUGCGCCGAUGAAGGUGUAGGGACUAGACGGCACCCACCUAAGGCCAACGUUAUGGUGAAGGCAUAGUCUAGGGAGCGGCGAAAGUCACACAAACCGG here?
Answer: 0.0977

Question: With GUGCCUUGCGCCGGGAAACCACGCAAGGGAUGGUGUCAAAUUCGGCGAAACCUAAGCGCCCGCCCGGGCGUAUGGCAACGCCGAGCCAAGCUUCGGCGCCUGCGCCGAUGAAGGUGUAGGGACUAGACGGCACCCACCUAAGGCCAACGUUAUGGUGAAGGCAUAGUCUAGGGAGGGGCGAAAGUCACACAAACCGG as the variant, how does the reverse-splicing fitness read?
Answer: 0.00915

Question: With GUGCCUUGCGCCGGGAAACCACGCAAGGGAUGGUGUCAAAUUCGGCGAAACCUAAGCGCCCGCCCGGGCGUAUGGCAACGCCGAGCCAAGCUUCGGCGCCUGCGCCGAUGAAGGUGUAGGGACUAGACGGCACCCACCUAAGGCCAACGUUAUGGUGAAGGCAUAGUCCAGGGAGAGGCGAAAGUCACACAAACCGG as the variant, how does the reverse-splicing fitness read?
Answer: 0.0853

Question: With GUGCCUUGCGCCGGGAAACCACGCAAGGGAUGGUGUCAAAUUCGGCGAAACCUAAGCGCCCGCCCGGGCGUAUGGCAACGCCGAGCCAAGCUUCGGCGCCUGCGCCGAUGAAGGUGUAGGGACUAGACGGCACCCACCUAAGGCCAACGUUAUGGUGAAGGCAUAGUCCAGGGAGCGGCGAAAGUCACACAAACCGG as the variant, how does the reverse-splicing fitness read?
Answer: 0.0938
